Reference: article PMC4068969, “SacPox from the thermoacidophilic crenarchaeon Sulfolobus acidocaldarius is a proficient lactonase” (BMC Research Notes, 2014)
Like-named read-outs stand apart in the source and are kept apart here.

Assays:
SacPox [1] = target: T1, SacPox (Sulfolobus acidocaldarius, UniProt Q4J6Z8); experiment: p-nitrophenolate release, […] nm; assay type: biochemical; conditions: 50 mM HEPES pH 8, 150 mM NaCl, 0.2 mM CoCl2, 25°C, cobalt cofactor; for Km: no SDS
T1 construct: gene pte; recombinant in E. coli BL21(DE3)-pGro7/GroEL with CoCl2

SacPox [2] = target: T1, SacPox; experiment: phenyl acetate hydrolysis, […] nm; assay type: biochemical; conditions: 50 mM HEPES pH 8, 150 mM NaCl, 0.2 mM CoCl2, 25°C; cobalt cofactor
SacPox [3] = target: T1, SacPox; assay type: biochemical; conditions: 2.5 mM Bicine pH 8.3, 150 mM NaCl, 0.2 mM CoCl2, 0.5% DMSO, 25°C; cobalt cofactor
[4] = tested on: CCCCCCCC(=O)CC(=O)N[C@H]1CCOC1=O; experiment: purified protein; assay type: biochemical, Sulfolobus acidocaldarius; conditions: 2.5 mM Bicine pH 8.3, 150 mM NaCl, 0.2 mM CoCl2, 0.5% DMSO, 25°C, cobalt cofactor
CCCCC1CCCC(=O)O1 = experiment: purified protein; assay type: biochemical, Sulfolobus acidocaldarius; conditions: 2.5 mM Bicine pH 8.3, 150 mM NaCl, 0.2 mM CoCl2, 0.5% DMSO, 25°C, cobalt cofactor
CCCCCCC1CCCC(=O)O1 = experiment: purified protein; assay type: biochemical, Sulfolobus acidocaldarius; conditions: 2.5 mM Bicine pH 8.3, 150 mM NaCl, 0.2 mM CoCl2, 0.5% DMSO, 25°C, cobalt cofactor
[5] = tested on: CCCCCC(=O)CC(=O)N[C@H]1CCOC1=O; experiment: purified protein; assay type: biochemical, Sulfolobus acidocaldarius; conditions: 2.5 mM Bicine pH 8.3, 150 mM NaCl, 0.2 mM CoCl2, 0.5% DMSO, 25°C, cobalt cofactor
CCCC1CCC(=O)O1 = experiment: purified protein; assay type: biochemical, Sulfolobus acidocaldarius; conditions: 2.5 mM Bicine pH 8.3, 150 mM NaCl, 0.2 mM CoCl2, 0.5% DMSO, 25°C, cobalt cofactor
CCCCCCCCC1CCC(=O)O1 = experiment: purified protein; assay type: biochemical, Sulfolobus acidocaldarius; conditions: 2.5 mM Bicine pH 8.3, 150 mM NaCl, 0.2 mM CoCl2, 0.5% DMSO, 25°C, cobalt cofactor
CCCCCC1CCC(=O)O1 = experiment: purified protein; assay type: biochemical, Sulfolobus acidocaldarius; conditions: 2.5 mM Bicine pH 8.3, 150 mM NaCl, 0.2 mM CoCl2, 0.5% DMSO, 25°C, cobalt cofactor
CCCCCCCC(=O)NC1CCOC1=O = experiment: purified protein; assay type: biochemical, Sulfolobus acidocaldarius; conditions: 2.5 mM Bicine pH 8.3, 150 mM NaCl, 0.2 mM CoCl2, 0.5% DMSO, 25°C, cobalt cofactor
CCCCCCCC1CCCC(=O)O1 = experiment: purified protein; assay type: biochemical, Sulfolobus acidocaldarius; conditions: 2.5 mM Bicine pH 8.3, 150 mM NaCl, 0.2 mM CoCl2, 0.5% DMSO, 25°C, cobalt cofactor

Compound: COP(=O)(OC)Oc1ccc([N+](=O)[O-])cc1 [Methyl Paraoxon]
- Km (SacPox [1]): 278 ± 40 µM

Compound: CCOP(=O)(OCC)Oc1ccc([N+](=O)[O-])cc1 [Paraoxon]
- Km (SacPox [1]): 434 ± 54 µM

Compound: CC(=O)Oc1ccccc1 [Phenyl-acetate]
- K M (μM) (SacPox [2]): 8 181 ± 1750 μM

Compound: CC(=O)Oc1ccc([N+](=O)[O-])cc1 [pNP-acetate]
- K M (μM) (SacPox [1]): 2 107 ± 313 μM

Compound: O=C1CCCCCO1 [ϵ caprolactone]
- K M (μM) (SacPox [3]): 1 031 ± 83 μM

Compound: SacPox (Sulfolobus acidocaldarius DSM 639)
- Km [4]: 213 ± 33 µM
- kcat [4]: 1.03 ± 0.04 s⁻¹
- kcat/Km [4]: 4880 ± 770 M⁻¹ s⁻¹
- Km (CCCCC1CCCC(=O)O1): 348 ± 53 µM
- kcat (CCCCC1CCCC(=O)O1): 4.55 ± 0.21 s⁻¹
- kcat/Km (CCCCC1CCCC(=O)O1): 13100 ± 2100 M⁻¹ s⁻¹
- Km (CCCCCCC1CCCC(=O)O1): 168 ± 37 µM
- kcat (CCCCCCC1CCCC(=O)O1): 1.05 ± 0.05 s⁻¹
- kcat/Km (CCCCCCC1CCCC(=O)O1): 6220 ± 1400 M⁻¹ s⁻¹
- Km [5]: 836 ± 178 µM
- kcat [5]: 0.89 ± 0.07 s⁻¹
- kcat/Km [5]: 1070 ± 250 M⁻¹ s⁻¹
- Km (CCCC1CCC(=O)O1): 388 ± 62 µM
- kcat (CCCC1CCC(=O)O1): 10.2 ± 0.5 s⁻¹
- kcat/Km (CCCC1CCC(=O)O1): 26400 ± 4400 M⁻¹ s⁻¹
- Km (CCCCCCCCC1CCC(=O)O1): 242 ± 60 µM
- kcat (CCCCCCCCC1CCC(=O)O1): 0.53 ± 0.03 s⁻¹
- kcat/Km (CCCCCCCCC1CCC(=O)O1): 2210 ± 570 M⁻¹ s⁻¹
- Km (CCCCCC1CCC(=O)O1): 109 ± 19 µM
- kcat (CCCCCC1CCC(=O)O1): 2.64 ± 0.07 s⁻¹
- kcat/Km (CCCCCC1CCC(=O)O1): 24400 ± 4400 M⁻¹ s⁻¹
- Km (CCCCCCCC(=O)NC1CCOC1=O): 178 ± 26 µM
- kcat (CCCCCCCC(=O)NC1CCOC1=O): 0.94 ± 0.02 s⁻¹
- kcat/Km (CCCCCCCC(=O)NC1CCOC1=O): 5280 ± 770 M⁻¹ s⁻¹
- Km (CCCCCCCC1CCCC(=O)O1): 185 ± 27 µM
- kcat (CCCCCCCC1CCCC(=O)O1): 3.34 ± 0.07 s⁻¹
- kcat/Km (CCCCCCCC1CCCC(=O)O1): 18100 ± 2700 M⁻¹ s⁻¹
